# Laboratory results reported in US20220162261A1 (published 2022).
# Bridge positions count the residues as written; N and C are the ends. Square brackets hold non-standard residues; d marks the D form. Ends that are not written are not given here. NMeR = CN[C@@H](CCCNC(=N)N)C(=O)O; NMeE = CN[C@@H](CCC(=O)O)C(=O)O; DIG = diglycolic acid (linker); Pen = CC(C)(S)[C@H](N)C(=O)O
# B1: SEQ ID NO: 1 (peptide)
# peptide: Ac-[Pen][NMeR]SDTL[Pen]W[βGlu][dK]-NH2
# modifications: disulfide 1-7; not fully specified (residue 10); printed as (Ac Pen N-Me-R S D T L Pen W Beta-E k NH2)2 DIG; also: homodimer: two subunits joined by DIG linker
# B2: SEQ ID NO: 87 (peptide)
# peptide: Ac-[Pen][NMeR]SDTL[Pen]WD[dK]-NH2
# modifications: disulfide 1-7; not fully specified (residue 10); printed as (Ac Pen N-Me-R S D T L Pen W D k NH2)2 DIG, disulfide Pen-Pen; also: homodimer: two subunits linked by DIG via D-Lys10 side chain
# B3: SEQ ID NO: 28 (peptide)
# peptide: Ac-[Pen][NMeR]SDTL[Pen][dW]E[dK]-NH2
# modifications: disulfide 1-7; not fully specified (residue 10); printed as (Ac Pen N-Me-R S D T L Pen w E k NH2)2 DIG, disulfide Pen-Pen; also: dimer, two subunits joined by DIG linker
# B4: SEQ ID NO: 95 (peptide)
# peptide: Ac-[Pen][NMeR]SDTL[Pen]WPK(DIG)-NH2
# modifications: disulfide 1-7; also: homodimer (…)2 DIG: the two subunits are joined through the K10 NZ by the DIG linker
# B5: SEQ ID NO: 83 (peptide)
# peptide: Ac-[Pen][NMeR]SDTL[Pen]WN[dK]-NH2
# modifications: disulfide 1-7; not fully specified (residue 10); printed as (Ac Pen N-Me-R S D T L Pen W N k NH2)2 DIG, disulfide Pen-Pen; also: homodimer: two subunits linked by DIG via D-Lys10 side chain
# B6: SEQ ID NO: 92 (peptide)
# peptide: Ac-[Pen][NMeR]SDTL[Pen]W[dY][dK](DIG)-NH2
# modifications: disulfide 1-7; also: homodimer (…)2 DIG: the two subunits are joined through the K10 NZ by the DIG linker
# B7: SEQ ID NO: 72 (peptide)
# peptide: Ac-[Pen][NMeR]SDTL[Pen]W[dE][dK]-NH2
# modifications: disulfide 1-7; not fully specified (residue 10); printed as (Ac Pen N-Me-R S D T L Pen W e k NH2)2 IDA PEG4 Biotine, disulfide Pen-Pen; also: homodimer: two subunits linked by IDA via D-Lys10 side chain, PEG4-Biotine on the linker
# B8: SEQ ID NO: 31 (peptide)
# peptide: Ac-[Pen][NMeR]SDTL[Pen]W[NMeE][dK]-NH2
# modifications: disulfide 1-7; not fully specified (residue 10); printed as (Ac Pen N-Me-R S D T L Pen W N-Me-E k NH2)2 DIG, disulfide Pen-Pen; also: dimer, two subunits joined by DIG linker
# B9: SEQ ID NO: 26 (peptide)
# peptide: Ac-[Pen][NMeR]SDTL[Pen]HY[dK]-NH2
# modifications: disulfide 1-7; not fully specified (residue 10); printed as (Ac Pen N-Me-R S D T L Pen H Y k NH2)2 DIG, disulfide Pen-Pen; also: dimer, two subunits joined by DIG linker
# B10: SEQ ID NO: 85 (peptide)
# peptide: Ac-[Pen][NMeR]SDTL[Pen]WF[dK]-NH2
# modifications: disulfide 1-7; not fully specified (residue 10); printed as (Ac Pen N-Me-R S D T L Pen W F k NH2)2 DIG, disulfide Pen-Pen; also: homodimer: two subunits linked by DIG via D-Lys10 side chain
# B11: SEQ ID NO: 82 (peptide)
# peptide: Ac-[Pen][NMeR]SDTL[Pen]WQ[dK]-NH2
# modifications: disulfide 1-7; not fully specified (residue 10); printed as (Ac Pen N-Me-R S D T L Pen W Q k NH2)2 DIG, disulfide Pen-Pen; also: homodimer: two subunits linked by DIG via D-Lys10 side chain
# B12: SEQ ID NO: 70 (peptide)
# peptide: Ac-[Pen][NMeR]SDTL[Pen]W[dE][dK]-NH2
# modifications: disulfide 1-7; not fully specified (residue 10); printed as (Ac Pen N-Me-R S D T L Pen W e k NH2)2 IDA, disulfide Pen-Pen; also: homodimer via IDA linker
# B13: SEQ ID NO: 94 (peptide)
# peptide: Ac-[Pen][NMeR]SDTL[Pen]WP[dK](DIG)-NH2
# modifications: disulfide 1-7; also: homodimer (…)2 DIG: the two subunits are joined through the K10 NZ by the DIG linker
# B14: SEQ ID NO: 71 (peptide)
# peptide: Ac-[Pen][NMeR]SDTL[Pen]W[dE][dK]-NH2
# modifications: disulfide 1-7; not fully specified (residue 10); printed as (Ac Pen N-Me-R S D T L Pen W e k NH2)2 IDA Biotine, disulfide Pen-Pen; also: homodimer via IDA linker bearing biotin
# B15: SEQ ID NO: 91 (peptide)
# peptide: Ac-[Pen][NMeR]SDTL[Pen]W[dF][dK]-NH2
# modifications: disulfide 1-7; not fully specified (residue 10); printed as (Ac Pen N-Me-R S D T L Pen W f k NH2)2 DIG, disulfide Pen-Pen; also: homodimer via DIG linker
# B16: SEQ ID NO: 25 (peptide)
# peptide: Ac-[Pen][NMeR]SDTL[Pen]HE[dK]-NH2
# modifications: disulfide 1-7; not fully specified (residue 10); printed as (Ac Pen N-Me-R S D T L Pen H E k NH2)2 DIG, disulfide Pen-Pen; also: dimer, two subunits joined by DIG linker
# Molecular target: T1, human α4β7 integrin on cells (human, UniProt P13612 34-1032; P26010 20-798)
# T1 construct: whole, on cells; also called α4β7 cell (Hu); RPMI8866 cells
# Assay: RPMI8866 cell adhesion to MAdCAM-1
row,IC50,Binder
1,> 10 nM,"Ac-[dK]C[NMeR]SDTLCW[dK]-NH2 (disulfide 2-8 (inferred); also: dimer linked by DIG, attachment not given here) [SEQ ID NO: 4]"
2,> 50 nM,B1
3,> 25 nM,B2
4,> 50 nM,B3
5,> 10000 nM,Ac-[Pen][NMeR]SDTL[Pen]WE[dK](Ac) (disulfide 1-7) [SEQ ID NO: 65]
6,> 100 nM,B4
7,> 50 nM,B5
8,> 50 nM,B6
9,> 25 nM,B7
10,> 50 nM,B8
11,> 100 nM,B9
12,> 10000 nM,Ac-[Pen][NMeR]SDTL[Pen]W[dE][dK](Ac) (disulfide 1-7) [SEQ ID NO: 66]
13,≤ 10 nM,B10
14,> 50 nM,B11
15,> 25 nM,B12
16,> 100 nM,B13
17,> 25 nM,B14
18,> 100 nM,B15
19,> 10 nM,B16
